Assay results: US20250339382A1, “CORRALLING AMPHIPATHIC PEPTIDE COLLOIDS” (KANSAS STATE UNIVERSITY RESEARCH FOUNDATION, priority 2022, published 2025)
No end group written: not given here. *: point of attachment. methylmercury = [CH3][Hg]*

Experiments:
[1] = Particle size and polydispersity by dynamic light scattering (Litesizer 500); format: physicochemical; conditions: for Hydrodynamic Diameter / Polydispersity: colloids produced by the amphipathic sequence in soy oil
Description: (§1) Encapsulation studies-Winterized Soybean oil (Archer Daniel Midlands, Chicago, IL) 50 μL was added to 2 mg of dry peptide and vortexed for 2 min. Deionized distilled-reverse osmosis (DDI-RO) water was added to a final volume of 1 mL. This mixture was sonicated (bath sonicator) for 15 min at 37° C. The generated CAPC are maintained at RT for at least 1 h prior to confocal microscopy. For the solvent/oil encapsulation study reagent grade-Benzene (Sigma-Aldrich, St. Louis, MO), Cyclohexane (Acros Organics, Geel, Belgium), n-Decane (grade 99+%, Sigma-Aldrich, St. Louis), Migloyl® 812N; capric triglyceride (Pharma Grade, IOI Oleo GmbH, Witten, Germany), and Mineral oil paraffin (USP, Thermo-Fisher Scientific, Waltham, MA) and Winterized Soy oil (Archer Daniel Midlands, Chicago, IL) were used. […] prepared using 50 μL of the solvent/oil along with 480 μL of DDI-RO water were sonicated for 15 min. CAPC, 2 mg, was subsequently added and sonicated for 10 min. These samples were measured 24 h thereafter for their size, Zeta potential and their circular dichroism (CD) spectra recorded. Particle size/Zeta potential-The samples were analyzed using a LitesizerTM 500 Particle Size Analyzer (Anton Paar GmbH, Graz, Austria) using an Omega Cuvette at 25° C. The size distribution of the particles was analyzed with the proprietary KalliopeTM v.2.16 software (Anton Paar GmbH, Graz, Austria) using the intensity-weighing model. For the Zeta potential analysis, the suspension used above was diluted to 5-fold in DDI-RO prior to analysis.

[2] = Zeta potential analysis (Litesizer 500); format: physicochemical
Description: as §1

[3] = colloids produced by the amphipathic sequence in soy oil

Substance	Hydrodynamic Diameter [1]	Polydispersity [1]	Zeta Potential [2, 3]	average (mean) diameter ([1]; peptide complexed with soy oil droplets, DLS intensity peak)	Zeta Potential ([2]; peptide complexed with soy oil droplets)
5(6)-Ac-FLIVI-KKKKK- C-CF (Ac-FLIVIKKKKKC; also: 5(6)-carboxyfluorescein label (C-CF), attachment not given here)	766 ± 225.0 nm	21 ± 4.8%	25 ± 2.7 mV	–	–
Ac-FAAAA-KKKKK-CONH2 (Ac-FAAAAKKKKK-NH2) [oligo-alanine peptide]	681 nm	500%	10.2 mV	–	–
Ac-FLIVI-KKKKK-C-Me-Hg (Ac-FLIVIKKKKKC(methylmercury))	578 ± 96.0 nm	25 ± 5.8%	33 ± 4.0 mV	–	–
Ac-FLIVI-KKKKK-CO-NH2 (Ac-FLIVIKKKKK-NH2) [Ac-FLIVI-KKKKK-CONH2]	560 nm	20%	38 mV	465 nm	44.8 mV
Ac-FLIVIGSII-KKKKK-CONH2 (Ac-FLIVIGSIIKKKKK-NH2) [Ac-FLIVIGSII-KKKKKCONH2]	300 nm	23%	21 mV	–	–
Ac-FLLLL-KKKKK-CONH2 (Ac-FLLLLKKKKK-NH2)	666 nm	200%	−0.6 mV	–	–
Ac-IVFLI-KKKKK-CONH2 (Ac-IVFLIKKKKK-NH2)	594 nm	25%	25 mV	–	–
